Results reported in patent US20190203229, “cis AND trans REQUIREMENTS FOR […] RESOLUTION OF HUMAN BOCAVIRUS 1” (University of Iowa Research Foundation, published 2019).

Molecular target: GST (UniProt P08515 P08515:1-218)
Experiment: EMSA; negative control
Details: label: 32P or biotin

GST, sequence (P08515 whole entry, one chain of several): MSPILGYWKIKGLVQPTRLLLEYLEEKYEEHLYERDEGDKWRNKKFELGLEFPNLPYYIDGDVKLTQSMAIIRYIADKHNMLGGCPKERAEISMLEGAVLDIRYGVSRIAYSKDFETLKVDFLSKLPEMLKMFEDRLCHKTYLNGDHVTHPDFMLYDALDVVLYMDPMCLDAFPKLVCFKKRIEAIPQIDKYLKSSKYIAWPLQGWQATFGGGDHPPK

B1: B19V Ori (dsDNA)
DNA 1: GCCGCCGGTCGCCGCCGGTAGGCGGGACTTCCGGTACA
DNA 2: TGTACCGGAAGTCCCGCCTACCGGCGGCGACCGGCGGC
  binding result: no binding
